Our source for the protein production values is a protein production outcome set (Wang et al. 2014).

The series can be described thus: label from the status in PepcDB records.
Turning to “MASSDVLRQPDKNARPLALSGHVGFDSLPDQLVNKSTSQGFCFNILCIGETGIGKSTLMDTLFNTNFENFESSHFEPKVKLRAQTYDLQESNVRLKLTVVNTVGFGDQMNKQESYQHIVDYIDTQFESYLQEELKIKRSLHNYHDSRIHACLYFIAPSGHSLKSLDLVTMKKLDSKVNIIPVIAKADTISKSELHKFKIKIMSELVSNGVQIYQFPIDDETVAKINTAMNGHLPFAVVGSTEEVNIGNKMVKARQYPWGVVQVENENHCDFVKLREMLICVNMEDLREQTHTRHYELYRRCKLEEMGFKDTDPECKPVSLQQTYEAKRQEFLGELQRREEEMRQTFVQRVKEKEAELKDAERELQGKFEQLKRLHADEKSKLEEKRRSLEEEMSVFSKRKAATELLQAQSFNTSTNNKKDKDRKNSGFM”, the protein production result is recorded as “not failed”.
For “MKLSINDLNVFVNTPKDIAKLCEDLSRLGLEVESCIPCIAPKNVVVGKILEKAPHKNAEKLSVCQVDVGKEVLQIVCGAKNVAPNQFVPVALNGALIGSTTIAKTELRGVESHGMICSSIELGFPKINDGILELDESVGELVLGKELNEYAPFNTHVLEISLTPNRGDCLSVLGIAREISAFYHTPLKPIKALNFTPKSGLITLSAGENIESHLAYYLICNHSLKTPLNIKLSLAHNNALSENDLNNFIEFSTHFSGVIMNAYSLNTTPMDLSVKNDENNLESVYINHQKRSTIAIKHQVQKDLSECLLLEASYTDPISLSLKLHALKDKTLQKDNALIYRSARGSNPNLSDGLNFLSAHLKATILESKQTEHSLKDRTLTFQLEDITEILGLAVEKEKIQGILKNLGFKVSVKEPNSKPQILEVIAPNFRHDIKTIQDIAEEILRFVGIDNLVSKPLHCVSSKNSNPNYDTHRFFENLKHKALACGFKEVIHYVFYSKEKQQKLGFEVLEDPLELQNPITTELNTLRTSLVCGLLDASLRNKNLGFKSIALYEKGSVYNSKREEIQKLGFLISGLQKKESYPDTKGKAWDFYSFAECVSKVIGDFSLEKLTTQTPINHPYQSAKIIQNHEIIGVIAKIHPKVIQELDLFESYYAEIDAFKLKRPAMLLKPFSIYPSSVRDLTLIIDENTAFSGIKKALKDAQIPNLSEILPLDIFKESNNSIALSVRCVIHSLEKTLNDEEVNSAVQKALEILEKEFNARLKG”, the protein production result is given as “failed”.
Take “MLDNRPIGVFDSGIGGLTIVKNLMSILPNEDIIYFGDIARIPYGTKSRATIQKFAAQTAKFLIDQEVKAIIIACNTISAIAKDIVQEIAKAIPVIDVITAGVSLVDNLNTVGVIATPATINSNAYALQIHKKNPNIEVYSNPCGLFVSMIEEGFVSGHIVELVAKEYLSYFHDKNIQALILGCTHYPIIKESIAKILDVKLIDPSLQASKMLYSLLFENKLLNTTKSNPEYRFYVTDIPLKFRSVGEMFLQTEMQHLEIVSLDSY”: the protein production entry was “not failed”.
Take “FEKVYHLKLSIKGITPQIWRRIQVPENYTFLDLHKAIQAVMDWEDYHLHEFEMVNPKTGMLDKIGAEGDDFDAFGGPLVSEKKAKLSDYFTLENKEALYTYDFGDNWQVKVRLEKILPRKEGVEYPICTAGKRAAVPEDSGGVWGYEEMLEVLKDSEHEEYEDTVLWLGDDFDPEYFDPKDVS”: the protein production result is reported as “failed”.
Take “MKRLALALKQRKVASWKLEEVKELTELIKNSNTILIGNLEGFPADKLHEIRKKLRGKATIKVTKNTLFKIAAKNAGIDIEKLEQYLTGPNVFIFTKDNPFITNMFFENYKLRRYAMPGDKAEEEVVIPAGDTGMPAGPILSVFGKLKVQTKVQDGKVHVVKDTVVAKPGDVIPAEALPILQKLGIMPVYVKLKIKVAYHEGLVIPAESLKLDLEGYRSNITEAYRNAFTLAVEIAYPTPDVLKFTISKVFKNAIALASEIGYITPESAQAVISKAVAKAYALATAIGGKVDLGVQLPTVQQSQSQQPAAEEKKEEKKEEEKKGPSEEEIASGLASLFG”: the protein production entry is “failed”.
For “MDEPVRTFPITWLADYVMEDEGFSSREDINDLLMKEGFPLEPDLFMLTEIARKGIIEVTSSRDYSPEYALFLNLTFRDGSALNSRKVKVAWSEVCSPKQEGGLGLRSIAEANKVCVLKLIWRILSARRSLWVELVKKYLIRRGSFWLVKENTTCGSWIWKKILKYRDTAKSFYRVEVRNGEASSFGFDRWSEMGCLYDRLGARGCIDLGSPMTATVGEVMAGARRRKYRVAILNQVENEIVKQKLIRSNETDVALWNGKHDHYRKEFHTKETWLQIRTAKLLMENYNGIWFKHSTPKYSLITWLVQKNRVATGDKLIKWNPQVTPNCILCQHTLETWDHLFFMCPYSFQVWTKLAKGILHASFTANWTETLKLIHDNRLSKTKCFIVGYIFQNAIHSL”, the protein production result was “failed”.
As to “MSTTGRIHSFESCGTVDGPGIRFIVFLQGCLMRCKYCHNRDTWDTHDGKEVTVEEIIAEAKSYRHFMNASGGGITCSGGEAMLQPEFVRDFFRAAHAEGIHTCLDTNGYIRKHTEVIDEVLDATDLVMLDIKHMKDEIHQDFIGVSNRRTLDFARYLHKIGQKTWIRYVVVPGYTDDPEAAHMLGEFIKDMDNIEKVELLPYHKLGAHKWEALGLEYPLEGVNPPSKETMDEIQSILSQYHSNVKYLEHHHHHH”, the protein production entry is given as “failed”.
In the case of “MKINLDRTSSGFCIGVQGTIHVAEEKLAQSGELYCLGDVVHNEVEVKRLEALGMETIDIPAFEELRNAEVLIRAHGEPPSTYETARKNNLAITDTTCPVVAKLQRTAKMLHQLGYQVVIYGKKVHPEVIGINGQCDDEGVVIKHPDLSDPEEIAPLDLSRKTALISQTTMDVPGFYELKRNLEKLFAEHGHRNPGTQSGEWMAVRDIDITAEKTGALAMPKLVFKDTICRQVSSRNGKLRDFALANDCIVFAAGRKSSNGQVLYSICKDANPHSYFIEDVDEIRPEWFVGENGKPVESVGICGATSTPMWLLEKVANYIDKTFGDGSSNPNA”, the protein production result is “failed”.
In the case of “RQVQKELGDVLVRLHNPVVLTPTTVQVTWTVDRQPQFIQGYRVMYRQTSGLQATSSWQNLDAKVPTERSAVLVNLKKGVTYEIKVRPYFNEFQGMDSESKTVRTTEE” it was “not failed”.
As for “INQQEDSSESCWNCGRKASETCSGCNTARYCGSFCQHKDWEKHHHIC”, the protein production result is recorded as “not failed”.
Next, “MTIKTLQYDDFMLYRERIRDLLVQIYDINFDVSHDYSINESNKKINLLDEYIKTNQAVLIGAVDGEKLVGFIWIYKHEYFGETRMHINQIIVDKEYKRKGIGKRLLEEAEKKAKELGIKVIDLFVSEKNAEAVNFYEKTGFVTERRYLKKILLEHHHHHH”: “not failed”; “MRASQSAIFRRIDPFAILSFTIPLAVYLLTLAPSVTFFDSGEFITAIHSLGTAHSPGYPLFVNYGKPFTWLPFGNIAFRVNIATAVSASAACFAVYFLTHYLLKREELVPDLRFSDTFARLCGLAAALAFAFSARLWLQSNHDKPYPLVAFMTAMVFYLLVTWRERYDEGEMRPSHIYLGAFICGLATGAHQTIVLMLPAYAWLILSKNWRLAARVKELALTVAFGLMGFAIQLHMPIRAMRNPLLNWGDPRTLDLFLWNFLRKGYPVEPPDRNLALAWQQLSAFNLPREFTWVGLVLLLVGIGAFFTRRRDEIIAYLLAIVCSLLVIVGYFNTPGDLIFLTEEFFTPIYLLSAVFIGLGLFTLLRLALRNNPVEKLRTVPIKLMAGLLLLVLPSAICAMNYYENDQHENYVAFDYATNTLRSLSPGAVLFTWGDSGAFPLWYLQGVERMREDLDLLHTPHLVFDWYLDAFPHLFGRSVLRTMPERRQSSEVALKLAVAEQIVSRPVFIDFSTRYSLPFAEYGLKQRGICYQLINDGGSVLRPPDLAVWRLYASRGYTSQMGFRDLDTGKAILIYASCRMEAGEILLRMGYRQQGAEELSAAAAIAPELRAQVEQVLAAYGAR”: “failed”.
In the case of “MSTILSLAPQNVWKHFYSLTQVPRPSGYLKKVQEFLLNFGKSVGVESFQDEAGNIIYRKPATPGMENRKKVILQAHMDMVPQKNNDTVHDFENDPIETYIDGDWVKAKGTTLGADDGMGVAAIMAIMEDKTLKHGPLEALITADEETGMFGAFGLKPGTVDGDILLNLDSEEEGELYIGCAGGEDLTAVLEYKEVETDPADIALKVTLKGLRGGHSGLEINEGRANANKLMARFMNQVITYDEACLVSWQGGNMRNAIPRECEVVITVPAEEEADVLEFVQECEALWNEEYHVHETPISFKAERVELPAMMVPDEIKDNLVDAIYACQNGVMRMIPTIPDTVETSSNLAIVSIGGGKAEIKILARSSRDSMKDYLNTALESCFSMAGMEVTRSGGYSGWEPNVDSPILKAMKESYKAQFGTEPAVKVIHAGLECGIIGAVVPGLDMISFGPTLRSPHSPDERCFIPSVGKFYDFVVATLENTPVKE” it was “failed”; in that of “MSSTTNPSTHHTSTIGAIGAPSRRNTELALLVFAVLIPVFAYANVGLAINDEVPAGLLSYGFGLGLLAGVGHLVVRKFAPYADPLLLPLATLLNGLGLVAIWRLDQSDRLQSSKLFVEAAPRQLMYSALGVALFVAVLVFLRDHRVLQRYTYISMAGALVLLLLPLVPGLGHDNFGAKIWIKIPGLGTLQPGEFAKIVLAVFFAGYLMVKRDALALASRRFMGLYLPRGRDLGPIIVVWIISILILVFETDLGTSLLFFGMFVIMLYVATERTSWIVFGLLMSAVGAVGVASFESHVQQRVQAWLDPMHEYELSRQGVFGHTEQSMQALWAFGSGGTLGSGWGQGNSDLIGFAANSDFILATFGEELGLAGLMALLLLYALIVERGVRTALAARDPFGKLLAIGLSGAFALQVFVVAGGVMGLIPLTGMTMPFLAYGGSSVIANWALIGILLRISDTARRPAPAAPANPDAEMTQVVRP”, “failed”.
In the case of “MKLRTQISILLIVFAVLLSGIVFAGFQLNKESVTGRQLDETTQHSERIAAGLDTRLKGLKRTVRLQATNPAIAAHGTPQQHYALKTMVNETMFNGVSVIHRNGTMTGIAAGLDPETRSELIGSDFSDRHYFQRARNGETYISAPVVADSGNYIVTISTPIYRDGAVVGTLNAALHLQDSSIFRMASKTANRDSSVFIRTQSGNQIYNRSAHLSSDPVTANATVNETGWIVQVQTSRNVLAGDLRTVTIYQLGGIGLVLALISGFGSILYTQILRYHRQLVRGFEALQRQEYGQQVAEEATGDWGQIFTAFNELSQTLAEYEEERVKHRNELQQERDRFRRLFQSIPEPAVVVEYTGNKTLIHNVNEAFEETFGYEASNAVGGDINDFIVPDGSLEEAESIDQLSSSGKQVTHEVRREAADGKRDFLLRSTPAVDGEDEVYFGVYIDITDRKQQERELTETNSVLSSVLDNMPVGILIEDADRTITTANKKLLDILDVSLTPSGLIGCEYAEIAETLKTQFADPDQFNETVNKIHSTRDAVFDEELLMADGRILARSYVSYSLPDGTGNIWLYRDITKNRQRERKLRETLEKTQKLIQAESIDEAATIAVEIANQTLSFPLSSVHLERKDGELEPAAITDAFEEGVGDTPVYQRTADNSSIDKLVWDVYTSGETRVLTDTGAEIPETISGMPSSGGIIQPMTNHGVLVTLGDSPNRFDEFDQYLVELLGAILATTLDRINQKQQIESQRDNLDLLNQIVRHDIRNDLQILLGRLDLLAERANDAQSEHVNAALRCAENAVELTQSARELSEVLLQNGTDSKPISLNRVVRQQIEEIRSANTDAEITINGSIPDVMIRANEMFDSVIRNLLKNAIQHNDKQDPEITISAIDQKEYVQLRIADNGPGVRDAQKESIFGKGEKELESSGTGIGLYLVSTLIESYGGDVWVEDNNPRGAVFVIELVKDS” it was “failed”; in that of “MIGQAILLGCIAFIAQSEYALGTSLLSRPIVTGLFVGIVLGDVKTGVIMGATLELAFIGSFSVGASIPPDVVTGGILGTAFAITAGAGTETALVLGLPIATLTLILKNIYLGLLIPIMSQKADQYAEEGAYKGVERMHLLAGFGLSFMLALIVTISFAVGSNTIKGLLDLIPEFIQHGLSVATGIIPALGFAMLARLLINKQVAPYFFLGFVLMAYFKLPVTGVAILGAITAVIVVNIMNYAKGKNETIQTTSGEVIDDDEDF”, “failed”.
